Columns and labels:
[1] = target: total gliadin fraction (Triticum aestivum); assay: turbidimetry; optical density at 540 nm after 30 min of mixing at room temperature; gliadins constant at 1 mg/mL, PINA 0 to 0.1 mg/mL; 20 mM citrate pH 5, with or without 0.1 M NaCl; Hill ligand-binding model
[2] = target: total gliadin fraction (Triticum aestivum); assay: turbidimetry; optical density at 540 nm after 30 min of mixing at room temperature; gliadins constant at 1 mg/mL, PINA 0 to 0.1 mg/mL; 20 mM Tris-HCl pH 7.2, with or without 0.1 M NaCl; Hill ligand-binding model
[3] = target: total gliadin fraction (Triticum aestivum); assay: turbidimetry; optical density at 540 nm after 30 min of mixing at room temperature; gliadins constant at 1 mg/mL, PINA 0 to 0.1 mg/mL; 20 mM malate pH 5, with or without 0.1 M NaCl; Hill ligand-binding model
[4] = target: α-gliadin (Triticum aestivum); assay: SPR; α-gliadin, γ-gliadin or (PQQPY)8 covalently bound to a CM5 chip (EDC/NHS, 10 mM acetate pH 4.7); PINA flowed over at 10 μL/min, 25°C, 10 mM Hepes pH 7.4, 150 mM NaCl, 3.4 mM EDTA, 0.005% P20; global kinetic fit, 1:1 Langmuir model
[5] = target: γ-gliadin (Triticum aestivum) (UniProt P08453); assay: as above
Chain of γ-gliadin (Triticum aestivum) (P08453 20-327): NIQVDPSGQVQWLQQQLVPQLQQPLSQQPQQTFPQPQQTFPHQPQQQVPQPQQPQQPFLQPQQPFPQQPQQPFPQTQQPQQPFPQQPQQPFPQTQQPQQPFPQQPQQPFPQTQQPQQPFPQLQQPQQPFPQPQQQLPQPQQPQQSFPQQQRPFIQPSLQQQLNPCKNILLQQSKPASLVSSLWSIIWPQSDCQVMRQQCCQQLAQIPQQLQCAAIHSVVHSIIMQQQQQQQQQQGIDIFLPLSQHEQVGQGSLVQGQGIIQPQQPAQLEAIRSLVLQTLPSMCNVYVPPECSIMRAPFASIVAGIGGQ

B1: puroindoline A (natural protein)
chain: DVAGGGGAQQCPVETKLNSCRNYLLDRCSTMKDFPVTWRWWKWWKGGCQELLGECCSRLGQMPPQCRCNIIQGSIQGDLGGIFGFQRDRASKVIQEAKNLPPRCNQGPPCNIPGTIGYYW
[1]
  Kd: 600 nM
[2]
  Kd: 1000 nM
[3]
  Kd: 400 nM
[4]
  Kd: 4450 nM
  koff: 0.00255 s⁻¹
  kon: 450 M⁻¹ s⁻¹
  response at equilibrium at 2.5 μM PINA: 160 RU
[5]
  Kd: 630 nM
  koff: 0.00185 s⁻¹
  kon: 3600 M⁻¹ s⁻¹
  response at equilibrium at 2.5 μM PINA: 34 RU
